The source of these data is PMC11648839.

The target of assay [1] is PmoA-eGFP (subunit A of the particulate methane monooxygenase enzyme complex, eGFP at the C-terminus) (UniProt Q607G3). In words: FRET or BRET; FRET-FLIM in living tobacco leaf epidermal cells; eGFP fusion as donor, mRFP fusion as acceptor; two-photon excitation at 920 nm, TCSPC; lifetime of the donor with acceptor compared with donor alone; region of interest on the nucleus. A general note: Bioluminescence resonance energy transfer reports proximity on the nanometre scale.

The target in assay [2] is eGFP-PmoA (subunit A of the particulate methane monooxygenase enzyme complex, eGFP at the N-terminus) (UniProt Q607G3). The assay is described as above.

In assay [1], “PmoC-mRFP (subunit C of the particulate methane monooxygenase enzyme complex, mRFP at the C-terminus) (natural protein)” returned an average eGFP (donor) fluorescence lifetime with acceptor of 2.2 ns and a Δ (reduction of donor lifetime against donor alone) of 0.2 ns.
In assay [1], “mRFP-PmoC (subunit C of the particulate methane monooxygenase enzyme complex, mRFP at the N-terminus) (natural protein)” displayed an average eGFP (donor) fluorescence lifetime with acceptor of 2.2 ns and a Δ (reduction of donor lifetime against donor alone) of 0.2 ns. In assay [2], this substance returned an average eGFP (donor) fluorescence lifetime with acceptor of 2.2 ns and a Δ (reduction of donor lifetime against donor alone) of 0.2 ns.
